Experimental data from patent US20220312749A1 (BIOCYTOGEN PHARMACEUTICALS BEIJING, published 2022).

What was measured:
Experiment in all cases: inferred by the filing from p-STAT5 flow cytometry on humanized mouse splenocytes
[1] = target: T1, Mouse recombinant interleukin 2 (mIL2) (mouse, UniProt P04351 21-169)
T1 construct: Bought reagent; also called recombinant mouse IL2; mouse IL2
T1 sequence (looked up): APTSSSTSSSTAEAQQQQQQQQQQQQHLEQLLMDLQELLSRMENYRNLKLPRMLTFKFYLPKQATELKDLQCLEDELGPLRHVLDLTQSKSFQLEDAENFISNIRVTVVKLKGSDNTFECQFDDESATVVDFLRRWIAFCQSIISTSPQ
Experimental: (§1) p-STAT5 is a known downstream signal in the IL2/IL2RA-mediated signaling pathway. Thus, the level of p-STAT5 in the IL2RA gene humanized mice can be detected to verify whether the IL2/IL2RA signaling pathway is functional in the humanized mice. Spleen cells from 14-week old wild-type C57BL/6 mice and IL2RA gene humanized homozygous mice were isolated (5×10⁵ cells/well, 4 wells each) and incubated in a 37° C. incubator for 30 minutes. […] Then, the stimulated cells were stained by APC Rat Anti-Mouse CD3 Molecular Complex, permeabilized, and stained by Phospho-Stat5 (Tyr694) (D47E7) XP® Rabbit mAb and Anti-rabbit IgG (H+L), F(ab′)2 Fragment (Alexa Fluor® 488 Conjugate), followed by flow cytometry analysis.

mouse IL2RB = target: T2, mouse IL2RB (mouse, UniProt P16297 27-539)
T2 construct: whole, on cells; also called CD122
T2 sequence (looked up): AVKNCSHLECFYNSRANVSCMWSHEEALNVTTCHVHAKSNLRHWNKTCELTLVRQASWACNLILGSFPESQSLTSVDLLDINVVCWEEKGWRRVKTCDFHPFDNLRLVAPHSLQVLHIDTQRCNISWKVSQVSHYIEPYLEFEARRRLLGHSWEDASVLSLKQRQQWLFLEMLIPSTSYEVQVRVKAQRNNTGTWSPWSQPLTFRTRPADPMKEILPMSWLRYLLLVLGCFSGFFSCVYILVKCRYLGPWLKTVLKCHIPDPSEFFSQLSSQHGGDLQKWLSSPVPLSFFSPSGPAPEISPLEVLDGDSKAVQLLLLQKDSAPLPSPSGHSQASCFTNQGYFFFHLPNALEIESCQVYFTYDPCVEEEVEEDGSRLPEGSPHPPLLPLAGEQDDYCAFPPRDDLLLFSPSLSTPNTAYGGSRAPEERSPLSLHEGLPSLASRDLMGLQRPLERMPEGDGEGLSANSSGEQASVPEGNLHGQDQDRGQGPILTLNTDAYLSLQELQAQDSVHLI
Experimental: as §1

mouse IL2RG = target: T3, mouse IL2RG (mouse, UniProt P34902 23-369)
T3 construct: whole, on cells; also called CD132; common gamma chain
T3 sequence (looked up): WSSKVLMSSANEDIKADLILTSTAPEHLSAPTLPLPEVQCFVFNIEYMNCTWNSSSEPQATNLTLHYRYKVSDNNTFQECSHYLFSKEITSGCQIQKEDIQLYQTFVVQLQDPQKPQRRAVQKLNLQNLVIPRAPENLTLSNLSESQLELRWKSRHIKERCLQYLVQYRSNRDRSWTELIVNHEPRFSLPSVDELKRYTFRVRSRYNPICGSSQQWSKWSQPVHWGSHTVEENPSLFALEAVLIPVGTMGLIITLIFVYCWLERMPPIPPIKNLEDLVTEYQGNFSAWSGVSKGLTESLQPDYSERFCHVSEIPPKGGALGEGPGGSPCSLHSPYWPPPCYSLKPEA
Experimental: as §1

Measured: binding result

B1: humanized IL2RA protein (chimeric human/mouse IL2RA expressed by B-hIL2RA mice) (receptor)
chain: ELCDDDPPEIPHATFKAMAYKEGTMLNCECKRGFRRIKSGSLYMLCTGNSSHSSWDNQCQCTSSATRNTTKQVTPQPEEQKERKTTEMQSPMQPVDQASLPGHCREPPPWENEATERIYHFVVGQMVYYQCVQGYRALHRGPAESVCKMTHGKTRWTQPQLICTGEMETSQFPGEEKPQASPEGRPESETSCLVTTTDFQIQTEMAATMETSIFTTEYKVAVASCLFLLISILLLSGLTWQHRWRKSRRTI
notes: also called chimeric IL2RA; engineered mouse IL2RA after humanization
binds: [1] | mouse IL2RB | mouse IL2RG
